Data reported in article PMC7617285, “Dehydrogenase versus oxidase function: the interplay between substrate binding and flavin microenvironment” (ACS catalysis, 2025).

System: T1, COc1cc(CO)ccc1O
T1 construct: SUMO tag cleaved for crystals; non-covalent FAD
Assay: purified protein
Type: biochemical, Novosphingobium sp.
Conditions: molecular oxygen as acceptor, 35 °C, 50 mM Tris-HCl pH 9.0, 300 mM NaCl

Substance | Km | kcat | kcat/Km
nsVAO (vanillyl-alcohol oxidase from Novosphingobium sp.) (Novosphingobium sp.) | 207 ± 28 µM | 0.29 ± 0.01 s⁻¹ | 1400 M⁻¹ s⁻¹
nsVAO (vanillyl-alcohol oxidase from Novosphingobium sp.) (Novosphingobium sp.; T181D) | 203 ± 22 µM | 0.28 ± 0.01 s⁻¹ | 1400 M⁻¹ s⁻¹
